From the supplement of paper PMC10065799, “High-throughput profiling of sequence recognition by tyrosine kinases and SH2 domains using bacterial peptide display” (eLife, 2023)

Experiments:
AncSZ = assay: phosphorylation enrichment, bacterial display (enrichment ratio); higher = better substrate or ligand; peptides without Tyr show the background
EPHB1 = EPHB1 (UniProt P54762); assay: as above
EPHB2 = EPHB2 (UniProt P29323); assay: as above
FGFR1 = FGFR1 (UniProt P11362); assay: as above
FGFR3 = FGFR3 (UniProt P22607); assay: as above
Fer (mouse) = assay: as above
Fes = Fes (UniProt P07332); assay: as above
Fyn = Fyn (UniProt P06241); assay: as above
Hck = Hck (UniProt P08631); assay: as above
Jak2 = Jak2 (UniProt O60674); assay: as above
MERTK = MERTK (UniProt Q12866); assay: as above
c-Abl (mouse) = assay: as above
c-Src = assay: as above
Grb2 SH2 = Grb2 SH2 (UniProt P62993); assay: SH2 binding enrichment of the phosphorylated peptide, bacterial display (enrichment ratio); higher = better substrate or ligand; peptides without Tyr show the background
SHP2-C SH2 = assay: as above
c-Src SH2 = assay: as above
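Throughout, for SH2 binding enrichment of the phosphorylated peptide, bacterial display: peptide library displayed on the E. coli surface as eCPX fusions, selected cells deep-sequenced, score is each peptide's frequency after selection divided by its frequency in the input.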
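Throughout, for phosphorylation enrichment, bacterial display: 11-residue human phosphosite peptides and single-mutation variants displayed on the E. coli surface, counted by deep sequencing, each peptide's frequency after selection divided by its frequency in the unselected input library; frequency after pTyr selection over input frequency; kinase dosed for 20-30% of maximal phosphorylation in three min.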

Sequence of Jak2 (O60674 whole entry, looked up): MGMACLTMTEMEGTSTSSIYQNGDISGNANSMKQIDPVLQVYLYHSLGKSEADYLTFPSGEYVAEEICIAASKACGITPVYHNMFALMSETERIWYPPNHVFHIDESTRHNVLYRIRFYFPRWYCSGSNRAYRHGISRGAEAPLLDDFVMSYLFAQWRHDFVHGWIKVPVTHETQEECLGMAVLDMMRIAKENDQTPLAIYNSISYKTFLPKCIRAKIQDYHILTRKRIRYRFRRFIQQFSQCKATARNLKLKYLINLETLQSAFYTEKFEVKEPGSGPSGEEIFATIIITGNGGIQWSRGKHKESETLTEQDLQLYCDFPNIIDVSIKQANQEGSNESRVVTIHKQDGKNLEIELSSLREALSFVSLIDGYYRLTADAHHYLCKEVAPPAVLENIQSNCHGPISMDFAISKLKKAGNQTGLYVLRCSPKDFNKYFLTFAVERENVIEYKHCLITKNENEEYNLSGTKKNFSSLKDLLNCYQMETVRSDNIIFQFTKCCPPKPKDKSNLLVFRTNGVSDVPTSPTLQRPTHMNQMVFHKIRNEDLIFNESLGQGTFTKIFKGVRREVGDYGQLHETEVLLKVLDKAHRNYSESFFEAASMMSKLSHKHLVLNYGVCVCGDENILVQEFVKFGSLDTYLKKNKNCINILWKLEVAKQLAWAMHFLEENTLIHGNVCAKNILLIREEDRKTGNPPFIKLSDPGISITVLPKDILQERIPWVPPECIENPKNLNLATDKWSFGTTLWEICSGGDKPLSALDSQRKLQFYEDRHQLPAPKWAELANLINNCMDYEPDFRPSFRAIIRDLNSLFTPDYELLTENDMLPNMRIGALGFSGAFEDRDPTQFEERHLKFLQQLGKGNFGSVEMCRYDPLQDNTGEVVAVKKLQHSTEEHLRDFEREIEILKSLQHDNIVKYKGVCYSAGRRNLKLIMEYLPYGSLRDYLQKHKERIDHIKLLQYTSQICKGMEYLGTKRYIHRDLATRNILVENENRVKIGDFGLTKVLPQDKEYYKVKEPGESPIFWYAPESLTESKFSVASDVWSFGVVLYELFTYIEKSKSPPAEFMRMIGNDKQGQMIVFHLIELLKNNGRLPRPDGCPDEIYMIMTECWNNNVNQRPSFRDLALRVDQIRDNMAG
Sequence of FGFR3 (P22607 whole entry, looked up): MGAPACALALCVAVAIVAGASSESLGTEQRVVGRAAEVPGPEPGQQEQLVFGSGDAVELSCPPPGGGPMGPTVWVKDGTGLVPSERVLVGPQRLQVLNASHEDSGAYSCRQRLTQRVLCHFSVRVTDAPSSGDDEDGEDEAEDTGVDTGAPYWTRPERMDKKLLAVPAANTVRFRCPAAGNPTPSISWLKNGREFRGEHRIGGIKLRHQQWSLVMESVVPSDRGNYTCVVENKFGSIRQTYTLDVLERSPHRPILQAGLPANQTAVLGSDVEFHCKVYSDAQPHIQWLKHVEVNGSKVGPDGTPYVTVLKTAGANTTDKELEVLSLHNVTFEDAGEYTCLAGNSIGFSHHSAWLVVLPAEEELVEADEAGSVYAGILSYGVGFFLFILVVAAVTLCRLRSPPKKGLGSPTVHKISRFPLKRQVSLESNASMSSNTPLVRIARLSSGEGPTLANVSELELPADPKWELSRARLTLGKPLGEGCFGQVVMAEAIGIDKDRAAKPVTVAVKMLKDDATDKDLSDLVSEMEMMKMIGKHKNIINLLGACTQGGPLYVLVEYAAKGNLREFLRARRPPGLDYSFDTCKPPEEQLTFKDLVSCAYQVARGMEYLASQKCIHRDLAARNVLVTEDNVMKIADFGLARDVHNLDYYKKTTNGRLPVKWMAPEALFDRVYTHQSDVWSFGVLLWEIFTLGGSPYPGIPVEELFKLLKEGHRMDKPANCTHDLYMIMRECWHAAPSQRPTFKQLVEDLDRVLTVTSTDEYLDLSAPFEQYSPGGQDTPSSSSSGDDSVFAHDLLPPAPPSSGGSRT
Sequence of FGFR1 (P11362 whole entry, looked up): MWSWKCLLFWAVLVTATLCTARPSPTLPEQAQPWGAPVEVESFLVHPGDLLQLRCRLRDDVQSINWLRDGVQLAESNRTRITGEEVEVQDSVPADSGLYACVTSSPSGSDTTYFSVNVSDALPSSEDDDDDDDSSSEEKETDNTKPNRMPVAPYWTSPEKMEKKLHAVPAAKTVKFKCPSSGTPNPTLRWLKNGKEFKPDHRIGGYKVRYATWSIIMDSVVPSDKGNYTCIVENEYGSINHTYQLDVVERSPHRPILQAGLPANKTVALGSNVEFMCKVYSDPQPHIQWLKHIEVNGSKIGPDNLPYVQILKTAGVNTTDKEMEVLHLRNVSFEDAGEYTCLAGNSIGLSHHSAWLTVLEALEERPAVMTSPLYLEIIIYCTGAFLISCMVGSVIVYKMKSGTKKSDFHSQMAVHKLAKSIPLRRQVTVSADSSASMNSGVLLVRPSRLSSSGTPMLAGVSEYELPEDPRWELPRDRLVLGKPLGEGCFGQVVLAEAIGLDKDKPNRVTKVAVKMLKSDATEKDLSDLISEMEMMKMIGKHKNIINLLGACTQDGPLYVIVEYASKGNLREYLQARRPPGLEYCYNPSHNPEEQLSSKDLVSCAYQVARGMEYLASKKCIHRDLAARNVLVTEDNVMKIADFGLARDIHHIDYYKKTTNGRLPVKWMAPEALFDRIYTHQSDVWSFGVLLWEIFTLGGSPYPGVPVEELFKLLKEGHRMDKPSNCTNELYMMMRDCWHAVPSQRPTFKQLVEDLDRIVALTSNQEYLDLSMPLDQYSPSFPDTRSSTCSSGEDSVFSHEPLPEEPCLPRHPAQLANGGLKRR
Sequence of EPHB1 (P54762 whole entry, looked up): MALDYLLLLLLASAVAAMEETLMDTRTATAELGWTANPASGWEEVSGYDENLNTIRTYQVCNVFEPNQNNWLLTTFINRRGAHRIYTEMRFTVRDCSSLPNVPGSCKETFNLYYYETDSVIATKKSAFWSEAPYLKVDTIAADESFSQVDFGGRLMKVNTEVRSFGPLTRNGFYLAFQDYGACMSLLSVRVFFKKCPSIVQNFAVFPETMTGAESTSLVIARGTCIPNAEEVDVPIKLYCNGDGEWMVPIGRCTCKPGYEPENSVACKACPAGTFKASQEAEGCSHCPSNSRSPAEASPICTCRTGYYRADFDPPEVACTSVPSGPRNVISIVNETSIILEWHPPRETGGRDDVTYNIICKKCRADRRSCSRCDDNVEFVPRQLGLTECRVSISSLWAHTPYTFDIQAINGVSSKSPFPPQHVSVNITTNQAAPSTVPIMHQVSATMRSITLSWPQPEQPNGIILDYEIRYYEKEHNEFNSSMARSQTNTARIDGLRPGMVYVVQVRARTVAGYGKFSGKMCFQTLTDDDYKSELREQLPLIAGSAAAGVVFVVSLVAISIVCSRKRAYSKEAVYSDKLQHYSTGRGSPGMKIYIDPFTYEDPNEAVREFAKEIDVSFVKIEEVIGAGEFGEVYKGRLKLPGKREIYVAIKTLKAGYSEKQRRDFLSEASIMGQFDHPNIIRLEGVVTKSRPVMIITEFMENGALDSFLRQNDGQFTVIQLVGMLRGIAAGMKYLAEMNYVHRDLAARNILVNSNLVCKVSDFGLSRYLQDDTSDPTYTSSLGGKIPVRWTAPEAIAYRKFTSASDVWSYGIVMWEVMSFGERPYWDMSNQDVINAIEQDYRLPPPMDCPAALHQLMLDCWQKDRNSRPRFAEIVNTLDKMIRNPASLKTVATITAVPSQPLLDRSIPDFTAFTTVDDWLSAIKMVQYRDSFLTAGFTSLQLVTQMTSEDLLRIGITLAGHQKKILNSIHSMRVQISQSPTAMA
Sequence of Fes (P07332 whole entry, looked up): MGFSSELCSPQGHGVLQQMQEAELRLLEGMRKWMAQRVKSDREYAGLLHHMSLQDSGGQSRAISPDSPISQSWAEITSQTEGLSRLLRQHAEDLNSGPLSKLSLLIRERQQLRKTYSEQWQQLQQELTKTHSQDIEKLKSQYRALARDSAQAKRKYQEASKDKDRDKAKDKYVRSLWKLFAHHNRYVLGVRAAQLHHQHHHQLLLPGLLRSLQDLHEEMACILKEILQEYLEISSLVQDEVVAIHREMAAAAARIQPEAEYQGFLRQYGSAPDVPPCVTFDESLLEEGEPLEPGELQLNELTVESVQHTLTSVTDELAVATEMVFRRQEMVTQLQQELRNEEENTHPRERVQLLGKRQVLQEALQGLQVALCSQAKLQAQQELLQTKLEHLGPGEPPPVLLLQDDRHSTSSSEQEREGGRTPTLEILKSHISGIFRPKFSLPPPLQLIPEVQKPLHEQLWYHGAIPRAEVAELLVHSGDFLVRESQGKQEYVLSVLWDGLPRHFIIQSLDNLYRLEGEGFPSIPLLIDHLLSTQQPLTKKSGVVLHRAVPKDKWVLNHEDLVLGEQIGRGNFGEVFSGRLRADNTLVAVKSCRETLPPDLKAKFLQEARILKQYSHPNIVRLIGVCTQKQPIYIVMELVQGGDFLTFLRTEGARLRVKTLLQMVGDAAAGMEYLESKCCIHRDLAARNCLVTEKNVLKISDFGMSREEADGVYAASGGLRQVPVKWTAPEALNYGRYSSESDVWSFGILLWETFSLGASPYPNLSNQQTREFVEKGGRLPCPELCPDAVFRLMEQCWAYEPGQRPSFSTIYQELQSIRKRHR
Sequence of Grb2 SH2 (P62993 whole entry, looked up): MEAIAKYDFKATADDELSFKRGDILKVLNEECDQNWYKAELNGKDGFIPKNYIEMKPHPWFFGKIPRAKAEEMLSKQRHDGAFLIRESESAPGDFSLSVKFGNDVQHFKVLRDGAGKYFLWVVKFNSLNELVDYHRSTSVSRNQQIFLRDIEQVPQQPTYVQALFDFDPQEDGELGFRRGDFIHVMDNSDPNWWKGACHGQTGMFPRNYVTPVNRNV

| Sequence | phosphorylation enrichment (AncSZ) | phosphorylation enrichment (EPHB1) | phosphorylation enrichment (EPHB2) | phosphorylation enrichment (FGFR1) | phosphorylation enrichment (FGFR3) | phosphorylation enrichment (Fer (mouse)) | phosphorylation enrichment (Fes) | phosphorylation enrichment (Fyn) | phosphorylation enrichment (Hck) | phosphorylation enrichment (Jak2) | phosphorylation enrichment (MERTK) | phosphorylation enrichment (c-Abl (mouse)) | phosphorylation enrichment (c-Src) | SH2 binding enrichment (Grb2 SH2) | SH2 binding enrichment (SHP2-C SH2) | SH2 binding enrichment (c-Src SH2) |
| --- | --- | --- | --- | --- | --- | --- | --- | --- | --- | --- | --- | --- | --- | --- | --- | --- |
| ADARMYGVLLW [PLP1_Y207_P211L] | 1.12 | 0.559 | 0.662 | 0.591 | 0.751 | 0.616 | 1.39 | 3.59 | 2.42 | 1.03 | 0.544 | 0.741 | 4.01 | 0.573 | 0.519 | 0.327 |
| RPSELYYSKIG [SMG1_Y2253] | 1.08 | 1.79 | 0.88 | 3.1 | 1.84 | 1.59 | 1.23 | 1.69 | 11.3 | 1.06 | 20.1 | 1.01 | 5.63 | 0.758 | 1.1 | 4.1 |
| ETDSEYVKLAK [C7orf57_Y70] | 0.934 | 0.441 | 0.492 | 0.377 | 0.478 | 0.335 | 0.817 | 0.433 | 0.425 | 0.69 | 0.398 | 0.588 | 0.391 | 0.816 | 0.676 | 0.479 |
| TFRPPYYHRDC [HGD_Y333_N337D] | 1.17 | 0.834 | 0.734 | 0.874 | 1.12 | 0.756 | 1.28 | 0.658 | 0.822 | 0.82 | 0.499 | 0.639 | 0.583 | 1.04 | 1.2 | 1.05 |
| NFYEYYVDDPL [GCHFR_Y48_P53L] | 2.81 | 6.99 | 7.76 | 7.28 | 5.52 | 6.36 | 1.74 | 4.96 | 2.29 | 1.64 | 7.76 | 1.04 | 4.67 | 0.984 | 0.726 | 0.856 |
| EWKQKYEESQS [MYH6_Y1462] | 1.02 | 0.525 | 0.616 | 0.499 | 0.65 | 0.44 | 1.08 | 0.49 | 0.528 | 1.04 | 0.357 | 0.706 | 0.395 | 0.897 | 0.672 | 0.545 |
| DFDNLYFWDQD [ERBB2_Y1221_A1216D_YF] | 2.2 | 1.57 | 1.07 | 7.58 | 7.69 | 2.2 | 1.71 | 6.47 | 5.15 | 1.25 | 4.6 | 0.801 | 5.27 | 0.668 | 0.854 | 0.333 |
| NFATLHLKIYH [PDE6B_Y219_Y219H] | 1.16 | 0.675 | 0.536 | 0.423 | 0.755 | 0.498 | 1.41 | 0.476 | 0.47 | 1.12 | 0.46 | 1.01 | 0.568 | 0.954 | 0.953 | 0.885 |
| RLLRGHDQSAY [HLA-C_Y137_Y137H] | 0.632 | 0.403 | 0.336 | 0.417 | 0.455 | 0.387 | 0.587 | 0.336 | 0.549 | 0.754 | 0.371 | 0.597 | 0.361 | 0.959 | 0.747 | 0.623 |
| QAINEYEKWLE [MAP9_Y603] | 2.34 | 1.67 | 1.03 | 1.12 | 1.39 | 0.961 | 1.81 | 1 | 1.2 | 1.73 | 0.663 | 1.06 | 0.631 | 0.707 | 0.882 | 0.655 |
| HVKHNYECLVY [XRCC5_Y416_I412V] | 1.06 | 2.87 | 2.04 | 0.75 | 1.12 | 0.573 | 1.2 | 0.922 | 0.842 | 1.12 | 0.519 | 1.01 | 2.04 | 1.03 | 0.938 | 5.15 |
| PLQKTYNFNML [SLC4A1_Y553_V557M_YF] | 0.801 | 0.476 | 0.587 | 0.318 | 0.809 | 0.665 | 1.17 | 0.493 | 0.594 | 0.861 | 0.582 | 0.63 | 0.784 | 0.713 | 2.38 | 0.717 |
| LRSELYSLIAR [PHIP_Y16_F17S] | 0.919 | 5.23 | 1.36 | 0.693 | 0.811 | 4.78 | 1.11 | 1.63 | 7.53 | 0.54 | 11 | 0.566 | 2.26 | 1.15 | 1.05 | 1.89 |
| LSFSEYASVQV [SIRPA_Y496_P491L] | 2.44 | 7.83 | 8.7 | 2.22 | 2.1 | 5.53 | 1.64 | 3.8 | 2.93 | 1.1 | 0.671 | 4.03 | 2.14 | 0.934 | 0.783 | 0.671 |
| DSDTDYGSGFP [RNASEH2A_Y206_L202S_YF] | 1.1 | 0.545 | 0.557 | 0.418 | 0.605 | 0.492 | 1.01 | 0.429 | 0.566 | 0.905 | 0.455 | 0.755 | 0.494 | 0.705 | 0.697 | 0.494 |
| VDLSKYITTIA [FAS_Y232] | 0.657 | 0.378 | 0.341 | 0.363 | 0.452 | 0.394 | 0.815 | 0.348 | 0.407 | 0.67 | 0.426 | 0.513 | 0.424 | 0.881 | 0.604 | 0.451 |
| TEDELYQLFLQ [RASGRP2_Y378_S381F] | 3.06 | 1.05 | 0.825 | 1.37 | 1.9 | 8.85 | 1.56 | 4.54 | 3.67 | 1.3 | 2.01 | 1.13 | 4.23 | 0.633 | 0.963 | 0.476 |

| Sequence | phosphorylation enrichment (AncSZ) | phosphorylation enrichment (EPHB1) | phosphorylation enrichment (EPHB2) | phosphorylation enrichment (FGFR1) | phosphorylation enrichment (FGFR3) | phosphorylation enrichment (Fer (mouse)) | phosphorylation enrichment (Fes) | phosphorylation enrichment (Fyn) | phosphorylation enrichment (Hck) | phosphorylation enrichment (Jak2) | phosphorylation enrichment (MERTK) | phosphorylation enrichment (c-Abl (mouse)) | phosphorylation enrichment (c-Src) | SH2 binding enrichment (Grb2 SH2) | SH2 binding enrichment (SHP2-C SH2) | SH2 binding enrichment (c-Src SH2) |
| --- | --- | --- | --- | --- | --- | --- | --- | --- | --- | --- | --- | --- | --- | --- | --- | --- |
| RKETFYTLSCR [GUCY2C_Y681] | 1.32 | 1.17 | 1.27 | 1.49 | 1.39 | 1 | 2.07 | 2.44 | 1.03 | 1.03 | 6.83 | 1.29 | 2.02 | 0.996 | 0.821 | 0.749 |
| INSLKYAYNVS [EIF2B5_Y583_I587V] | 0.642 | 0.402 | 0.354 | 0.522 | 0.525 | 0.419 | 1.01 | 0.633 | 0.424 | 0.571 | 0.443 | 0.643 | 0.6 | 1.01 | 0.636 | 0.654 |
| MKVPVYETPAG [PGM5_Y358] | 1.57 | 11.7 | 18.2 | 0.492 | 0.649 | 11.6 | 1.08 | 6.27 | 7.86 | 0.903 | 5.35 | 18.2 | 5.2 | 0.851 | 0.698 | 1.28 |
| FEGAIYRKDVG [GART_Y417] | 0.645 | 0.332 | 0.312 | 0.347 | 0.539 | 0.662 | 0.707 | 0.405 | 0.514 | 0.467 | 0.288 | 0.457 | 0.393 | 0.664 | 0.582 | 0.451 |
| NHYKIHNLCAE [PTEN_Y68_Y68H] | 0.593 | 0.56 | 0.614 | 0.493 | 0.58 | 0.463 | 0.823 | 0.421 | 0.476 | 0.706 | 0.435 | 0.696 | 0.492 | 1.08 | 1.02 | 0.554 |
| QTLTDYDTRFF [CSNK2A3_Y131_I133T_YF] | 0.909 | 0.506 | 0.823 | 0.666 | 0.912 | 0.684 | 1.09 | 0.702 | 1.06 | 0.832 | 0.473 | 0.725 | 0.573 | 0.862 | 0.852 | 0.708 |
| FIATQYSLCPR [LBR_Y166_R169C_YF] | 1.03 | 0.618 | 0.666 | 0.475 | 0.762 | 0.631 | 1.07 | 0.486 | 0.749 | 1.14 | 0.752 | 0.777 | 0.683 | 1.02 | 0.851 | 0.687 |
| QITQVCGFYDE [PPP2CA_Y127_Y127C] | 1.21 | 1.1 | 0.849 | 0.648 | 0.995 | 0.856 | 1.57 | 0.636 | 0.865 | 1.19 | 0.522 | 1.08 | 0.823 | 0.963 | 0.58 | 0.747 |
| DAVAVCHGKIS [SH2D1A_Y7_Y7C] | 0.658 | 0.387 | 0.471 | 0.467 | 0.628 | 0.467 | 0.745 | 0.472 | 0.458 | 0.774 | 0.403 | 0.59 | 0.406 | 0.71 | 0.539 | 0.536 |
| LERDIYNREEF [HLA-DPB1_Y59_Y57D] | 1.19 | 0.706 | 0.718 | 1.03 | 0.906 | 0.672 | 1.62 | 1.23 | 1.17 | 1.3 | 0.49 | 1.39 | 1.18 | 0.841 | 1.07 | 0.678 |
| SVTCTYSPAHN [TP53_Y126_L130H] | 1.37 | 0.773 | 0.705 | 0.502 | 0.865 | 0.799 | 1.59 | 0.497 | 0.517 | 2.08 | 0.663 | 1.17 | 0.802 | 0.644 | 0.605 | 0.367 |
| DEEPPHRGPFC [SASH1_Y551_Y551H] | 1.01 | 0.619 | 0.783 | 0.645 | 0.651 | 0.528 | 1.06 | 0.489 | 0.542 | 0.795 | 0.41 | 0.609 | 0.475 | 1.03 | 0.895 | 0.744 |
| EVASVYQSYQP [MAVS_Y92] | 0.864 | 0.54 | 0.622 | 0.518 | 0.568 | 2.7 | 0.802 | 9.7 | 7.42 | 0.661 | 0.569 | 1.14 | 7.09 | 0.753 | 0.8 | 0.609 |
| NPQKSYFIRLF [WAS_Y83_YF] | 1.09 | 0.58 | 0.501 | 0.579 | 0.754 | 0.583 | 1.4 | 0.453 | 0.5 | 1.21 | 0.457 | 0.692 | 0.464 | 1.2 | 0.945 | 0.701 |
| PNAFIYVVQLP [L1CAM_Y420_A415P_YF] | 1.39 | 1.2 | 1.53 | 0.797 | 1.31 | 0.737 | 1.56 | 0.896 | 1.06 | 1.26 | 1.69 | 0.747 | 0.87 | 0.931 | 0.768 | 0.656 |
| SLKEFYGEDAK [ALDH3A1_Y272] | 0.929 | 0.434 | 0.472 | 0.472 | 0.692 | 0.588 | 1.08 | 0.51 | 0.501 | 0.903 | 0.388 | 0.561 | 0.44 | 0.916 | 0.599 | 0.511 |
